Laboratory results reported in publication PMC8461876, “Automation assisted anaerobic phenotyping for metabolic engineering” (Microbial Cell Factories, 2021).

Substrate: O=C1C=CCCC1
Assay: purified protein
Format: biochemical, Bacillus subtilis
Conditions: 0.15 mM NADPH, 40 mM HEPES pH 7.5, 35 °C, anaerobic (glucose oxidase/glucose), 15 nM enzyme

B1: enoate reductase YqjM (Bs-YqjM) (Bacillus subtilis subsp. subtilis str. 168) (protein)
chain: MARKLFTPITIKDMTLKNRIVMSPMCMYSSHEKDGKLTPFHMAHYISRAIGQVGLIIVEASAVNPQGRITDQDLGIWSDEHIEGFAKLTEQVKEQGSKIGIQLAHAGRKAELEGDIFAPSAIAFDEQSATPVEMSAEKVKETVQEFKQAAARAKEAGFDVIEIHAAHGYLIHEFLSPLSNHRTDEYGGSPENRYRFLREIIDEVKQVWDGPLFVRVSASDYTDKGLDIADHIGFAKWMKEQGVDLIDCSSGALVHADINVFPGYQVSFAEKIREQADMATGAVGMITDGSMAEEILQNGRADLIFIGRELLRDPFFARTAAKQLNTEIPAPVQYERGW
notes: full gene, N-terminal 6xHis tag (p15TvL), tag cleavage not mentioned; expressed in E. coli LOBSTR BL21(DE3); FMN loaded
Km: 350 ± 60 µM
